{
  "source": "paper PMC9900762",
  "target": "P. falciparum cytochrome c-2 (PF3D7_1311700), recombinant (P. falciparum) (UniProt Q8I6T6)",
  "experiment": "crystal structure",
  "data": [
    {"substance": "P. falciparum cytochrome c-2 (PF3D7_1311700), recombinant (from UniProt Q8I6T6 1-159) (natural protein)", "values": [
      {"measurement": "stoichiometry N", "value": 2}
    ]}
  ]
}
